# Experimental data published in patent US20160327558A1 (HELMHOLTZ ZENTRUM M NCHEN DEUTSCHES FORSCHUNGSZENTRUM F R …, published 2016).
# Primed or numbered codes have the meaning given here. The star is where a group is joined. AOMK(5) = C-terminal Arg as acyloxymethyl ketone (dimethyl benzoic acid leaving group), Cc1cccc(C)c1C(=O)OCC(=O)[C@H](CCCNC(=N)N)N*; AOMK(4) = acyloxymethyl ketone (C-terminal covalent warhead); BODIPY(FL) = CC1=CC(C)=[N+]2C1=Cc1ccc(CCC(=O)*)n1[B-]2(F)F; FITC = O=C1OC2(c3ccc(O)cc3Oc3cc(O)ccc32)c2ccc(NC(=S)*)cc21; Butanoyl(4-ethynyl) = C#CCCCC(=O)*
# T1: FLAG-MALT1 wt (MALT1 Isoform B, overexpressed in Jurkat T cells) (human, UniProt Q9UDY8 2-824)
# T1 construct: also called overexpressed FLAG-MALT1 wt; not shown: N-terminal FLAG tag (or HA tag)
# T1 sequence: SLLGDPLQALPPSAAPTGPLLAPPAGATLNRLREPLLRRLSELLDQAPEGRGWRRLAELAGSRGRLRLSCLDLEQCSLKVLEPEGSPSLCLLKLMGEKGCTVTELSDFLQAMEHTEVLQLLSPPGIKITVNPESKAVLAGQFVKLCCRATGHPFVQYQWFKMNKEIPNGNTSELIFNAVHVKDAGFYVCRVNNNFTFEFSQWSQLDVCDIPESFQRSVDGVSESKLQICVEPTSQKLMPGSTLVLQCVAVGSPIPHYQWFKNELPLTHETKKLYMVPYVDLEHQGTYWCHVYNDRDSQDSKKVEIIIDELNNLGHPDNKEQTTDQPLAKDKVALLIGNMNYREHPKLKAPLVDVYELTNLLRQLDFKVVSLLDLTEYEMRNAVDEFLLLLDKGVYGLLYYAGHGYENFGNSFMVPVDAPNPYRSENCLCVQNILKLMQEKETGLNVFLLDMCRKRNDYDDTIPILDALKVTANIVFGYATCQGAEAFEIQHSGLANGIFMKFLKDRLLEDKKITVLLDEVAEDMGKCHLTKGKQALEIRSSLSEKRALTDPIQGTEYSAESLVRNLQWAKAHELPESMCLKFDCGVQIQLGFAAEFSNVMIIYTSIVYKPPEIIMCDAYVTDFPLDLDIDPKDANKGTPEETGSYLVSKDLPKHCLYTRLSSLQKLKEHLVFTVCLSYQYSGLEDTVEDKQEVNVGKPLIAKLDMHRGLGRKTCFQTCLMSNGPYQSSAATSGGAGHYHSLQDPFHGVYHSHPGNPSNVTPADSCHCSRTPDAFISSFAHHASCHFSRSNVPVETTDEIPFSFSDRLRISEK
# T2: FLAG-MALT1 active site mutant C464A (C453A in Isoform B) (human, UniProt Q9UDY8 2-824)
# T2 construct: Isoform B with C453A; also called MALT1 mutant; not shown: N-terminal FLAG tag (or HA tag)
# T2 sequence: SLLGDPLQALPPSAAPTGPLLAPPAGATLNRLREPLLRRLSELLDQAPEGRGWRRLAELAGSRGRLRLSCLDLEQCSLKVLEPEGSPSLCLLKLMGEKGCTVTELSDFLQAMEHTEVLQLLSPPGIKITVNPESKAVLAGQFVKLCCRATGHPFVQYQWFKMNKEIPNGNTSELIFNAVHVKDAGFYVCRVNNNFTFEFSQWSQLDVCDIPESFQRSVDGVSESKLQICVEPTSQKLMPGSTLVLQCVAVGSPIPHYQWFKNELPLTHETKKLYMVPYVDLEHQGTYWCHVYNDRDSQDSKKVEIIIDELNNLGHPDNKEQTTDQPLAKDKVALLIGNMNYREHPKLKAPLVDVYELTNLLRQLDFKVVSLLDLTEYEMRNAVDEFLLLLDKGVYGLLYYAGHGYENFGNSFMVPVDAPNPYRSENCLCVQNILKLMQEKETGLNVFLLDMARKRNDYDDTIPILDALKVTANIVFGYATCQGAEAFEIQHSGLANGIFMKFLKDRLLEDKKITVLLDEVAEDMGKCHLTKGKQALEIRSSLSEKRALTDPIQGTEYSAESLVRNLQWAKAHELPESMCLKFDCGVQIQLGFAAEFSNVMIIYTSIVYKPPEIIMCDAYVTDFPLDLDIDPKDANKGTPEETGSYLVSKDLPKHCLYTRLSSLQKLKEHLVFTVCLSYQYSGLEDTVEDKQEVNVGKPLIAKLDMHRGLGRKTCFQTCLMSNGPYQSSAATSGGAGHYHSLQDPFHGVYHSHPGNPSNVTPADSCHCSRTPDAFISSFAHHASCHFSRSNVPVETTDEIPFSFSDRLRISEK
# How the values were obtained:
# [1] = biological target: T1, FLAG-MALT1 wt (MALT1 Isoform B, …); assay: labeling after lysis and FLAG IP, in-gel fluorescence
# Procedure: (§1) Jurkat T cells, transfected with active FLAG-[…] wt or active site mutant C464A, were stained after lysis and IP with probe 2, pre-clicked to TAMRA. Analysis was done by fluorescence staining.
# (§2) Cells were lysed in 500 μl co-IP buffer without protease inhibitors (25 mM hepes pH 7.5, 150 mM NaCl, 0.2% NP-40, 10% glycerol, 1 mM DTT, 10 mM sodium fluoride, 8 mM β-glycerophosphate and 300 μM sodium vanadate), centrifuged (14000 rpm, 10 min, 4° C.) and overexpressed FLAG MALT1 was immunoprecipitated by FLAG (M2) antibody for 3 hours at 4° C. PGS was added for 1 h at 4° C., precipitate was washed 2× with co-IP buffer and 1× with 50 mM hepes pH 7.4. Precipitated MALT1 was incubated with 0.3 μM pre-clicked probe 2 (in 20 μl 50 mM hepes pH 7.4) for 50 min at 29° C., mixed with 4× loading dye and boiled for 3 min. After protein separation by SDS PAGE, staining with diagnostic inhibitor was detected by Typhoon Fluorescence Scanner (FITC laser 488 nm/filter 526 SP; TAMRA laser 532 nm/filter 580 BP).
# [2] = biological target: T2, FLAG-MALT1 active site mutant C464A …; assay: labeling after FLAG IP, SDS PAGE, fluorescence scanning
# Procedure: as §1, §2
# Human cathepsin B [3] = biological target: T3, Human cathepsin B (human, UniProt P07858 80-333); assay: extracts of Jurkat T cells labeled with probe 5, in-gel fluorescence
# Human cathepsin B [4] = biological target: T3, Human cathepsin B; assay: reduction of the labeled cathepsin B band and in vitro cathepsin B cleavage assay
# Procedure: 0.2 ng cathepsin B together with probe 5, z-VRPR-FMK, mepazine or CA-074 was incubated with 1 mM zRR-AMC substrate for 2 h at 30° C. Assay was performed in 0.1 M sodium acetate pH 5.5, 10 mM DTT and 0.1 mM EDTA. Again, increase of AMC fluorescence is measured in a Synergy 2 Microplate Reader (Biotek).
# Importantly, MALT1 was the only inducible band in extracts labeled with probe 5, although some background signals were obtained. […] As expected, Caspase 8 activity was not affected by the diagnostic inhibitors of MALT1 of the present invention. […] In agreement with cross-reaction of the diagnostic MALT1 inhibitors of the present invention and cathepsin B, preincubation of CA-074Me in Jurkat T cells completely abolished detection of the ˜30 kDa signal while inducible MALT1 labeling was unaffected (FIG. 3D). Thus, tetrapeptides that target the active site of MALT1 are also binding to cathepsin B. Since serine (LRSR) or proline (VRPR) at the P2 position is already poorly tolerated by cysteine cathepsins, improvement of the peptide scaffold may be very difficult.
# Human cathepsin B [5] = biological target: T3, Human cathepsin B; assay: Jurkat whole cell extract labeled with probe 5 or probe 6, fluorescent scanning
# Procedure: FIG. 6: Jurkat T cells were stimulated or not, lysed and whole cell extract was incubated with indicated concentrations of FITC conjugated probe 5 or BODIPY conjugated probe 6 and analyzed via fluorescent scanning. Probe 6 results in slightly higher active MALT1 labeling and cathepsin labeling (open circle) seems to be reduced.
# Jurkat T cells (1-2×10⁷), primary human PBMCs or primary human T cells (0.25 or 1×10⁷) were lysed in 150 μl co-IP buffer without protease inhibitors. DLBCL (3×10⁷) were lysed in 250 μl buffer. After centrifugation (14000 rpm, 10 min, 4° C.), 100 μl extract (DLBCL: 200 μl) was stained with probe 5 or probe 6 (3 μM end) for 50 min at 29° C., mixed with 4× loading dye and boiled.
binder,measurement,setting,value
"{N‑TAMRA‑3‑aminopropylazide (click)-Butanoyl(4-ethynyl)}-LRSR-{AOMK(5)} (Covalent activity-based probe; also called TAMRA-LRSR-AOMK) [probe 2 (alkyne-LRSR-AOMK), pre-clicked to TAMRA]",binding result,[1],binds
same,binding result,[2],no binding (tested: 0.3 µM pre-clicked probe 2)
{FITC}-LRSR-{AOMK(4)} (Covalent activity-based probe; also called FITC conjugated probe 5) [probe 5 (FITC-LRSR-AOMK)],binding result,Human cathepsin B [3],binds
"VRPR (not fully specified; N-terminal z group; C-terminal Arg as fluoromethylketone (FMK), Bought (Alexis Biochemicals)) [z-VRPR-FMK]",binding result,Human cathepsin B [4],binds
"{BODIPY(FL)}-LRSR-{AOMK(5)} (SMILES CC1=CC(C)=[N+]2C1=Cc1ccc(CCC(=O)N[C@@H](CC(C)C)C(=O)N[C@@H](CCCNC(=N)N)C(=O)N[C@@H](CO)C(=O)N[C@@H](CCCNC(=N)N)C(=O)N[C@@H](CCCNC(=N)N)C(=O)COC(=O)c3c(C)cccc3C)n1[B-]2(F)F, Covalent activity-based probe; also called BODIPY conjugated probe 6; BODIPY probe 6) [probe 6 ((BODIPY-FL)-LRSR-AOMK)]",binding result,Human cathepsin B [5],binds
